Source: patent publication US20090297524A1 (DOMANTIS, published 2009)
Residue numbers refer to the chain shown, from its start. Blank lines part the entries; values can stand above or below the binder they belong to.

Key:
[1] = molecular target: T1, Recombinant human CD40L (human, UniProt P29965 108-261, limits assumed); test: CD40L receptor binding assay: dAb inhibits CD40L (3 ng/ml) binding to coated CD40/Fc
T1 construct: also called CD40 ligand
T1 sequence (looked up): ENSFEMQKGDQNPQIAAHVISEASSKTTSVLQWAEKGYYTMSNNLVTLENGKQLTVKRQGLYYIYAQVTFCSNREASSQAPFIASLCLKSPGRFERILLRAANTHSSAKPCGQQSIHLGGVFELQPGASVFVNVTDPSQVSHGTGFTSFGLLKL
Description: A 96 well Nunc Maxisorp assay plate was coated overnight at 4° C. with 100 μl per well of recombinant human CD40/Fc (R&D Systems) at 0.5 μg/ml in carbonate buffer. The plate was washed 3 times with 300 μl of 0.05% Tween/PBS and 3 times with 300 μl of PBS using a Tecan plate washer. The wells were blocked using 200 μl of PBS containing 2% (w/v) BSA and incubated for a minimum of 1 h at room temperature. The wells were washed as above, then 50 μl of purified dAb protein (or unpurified supernatant containing dAb from a micro-culture expression) was added to each well.
The plate was washed as described above, then 100 μl HRP conjugated anti-biotin antibody (1:5000 dilution in diluent) added to each well and the plate incubated for 1 hr at room temperature. The plate was washed again as described above using a Tecan plate washer and the assay developed using 100 μl of SureBlue 1-Component TMB MicroWell Peroxidase solution (the plate was left at room temperature for up to 20 min). The reaction was stopped by the addition of 100 μl M hydrochloric acid. The OD₄₅₀ₙₘ of the plate was assayed within 30 minutes of acid addition. The OD₄₅₀ₙₘ is proportional to the amount of bound streptavidin-HRP conjugate, therefore the greater the degree of dAb inhibition the lower the OD₄₅₀ₙₘ of the resulting signal.

[2] = molecular target: T1, Recombinant human CD40L; test: CD40L receptor binding assay (RBA, ELISA): dAb titrated against 3 ng/ml CD40L binding to plate-coated CD40/Fc
Description: (§1) A 96 well Nunc Maxisorp assay plate was coated overnight at 4° C. with 100 μl per well of recombinant human CD40/Fc (R&D Systems) at 0.5 μg/ml in carbonate buffer. The plate was washed 3 times with 300 μl of 0.05% Tween/PBS and 3 times with 300 μl of PBS using a Tecan plate washer. The wells were blocked using 200 μl of PBS containing 2% (w/v) BSA and incubated for a minimum of 1 h at room temperature. The wells were washed as above, then 50 μl of purified dAb protein was added to each well. […] The plate was washed as described above, then 100 μl HRP conjugated anti-biotin antibody (1:5000 dilution in diluent) added to each well and the plate incubated for 1 hr at room temperature. The plate was washed again as described above using a Tecan plate washer and the assay developed using 100 μl of SureBlue 1-Component TMB MicroWell Peroxidase solution (the plate was left at room temperature for up to 20 min). The reaction was stopped by the addition of 100 μl M hydrochloric acid. The OD₄₅₀ₙₘ of the plate was assayed within 30 minutes of acid addition. The OD₄₅₀ₙₘ is proportional to the amount of bound streptavidin-HRP conjugate, therefore the greater the degree of dAb inhibition the lower the OD₄₅₀ₙₘ of the resulting signal.

[3] = molecular target: T1, Recombinant human CD40L; test: CD40L receptor binding assay: inhibition of CD40L (3 ng/ml) binding to coated CD40/Fc; 30K PEG
Description: as §1

[4] = molecular target: T1, Recombinant human CD40L; test: CD40L receptor binding assay: inhibition of CD40L (3 ng/ml) binding to coated CD40/Fc; 40K PEG
Description: as §1

IC50 [1]: 40 nM
B1: DOM-77 (other)
VH: EVQLLESGGGLVQPGGSLRLSCAASGFTFEEYGMAWVRQAPGKGLEWVSTISPLGISTYYADSVKGRFTISRDNSKNTLYLQMNSLRAEDTAVYYCAKHATSQESLRSFDYWGQGTLVTVSS
notes: VH dAb

IC50 [1]: 900 nM
B2: DOM-8 (other)
VL: DIQMTQSPSSLSASVGDRVTITCRASQFIDTSLEWYQQKPGKAPKLLIYDGSHLQSGVPSRFSGSGSGTDFTLTISSLQPEDLATYYCQQYWVLPLTFGQGTKVEIKR
notes: Vk dAb

IC50 [1]: 50 nM
B3: DOM-10 (other)
VH: EVQLLESGGGLVQPGGSLRLSCAASGFTFIAYDMSWVRQAPGKGLEWVSWIDEWGLQTYYADSVKGRFTISRDNSKNTLYLQMNSLRAEDTAVYYCAKKTPEEFDYWGQGTLVTVSS
notes: VH dAb

IC50 (read off the curve) [2]: ~0.6 nM
B4: DOM8-24cys (other)
VH: ASTEVQLLESGGGLVQPGGSLRLSCAASGFTFSNYQMAWVRQAPGKGLEWVSSITSEGGSTYYADSVKGRFTISRDNSKNTLYLQMNSLRAEDTAVYYCAKPGKNFDYWGQGTLVTVSC
notes: VH dAb DOM8-24 with an engineered C-terminal cysteine (last Ser replaced by Cys); also called unmodified protein

IC50 (read off the curve) [2]: ~0.5 nM
IC50 [3]: ~1 nM
B5: 30K PEG-MAL PEGylated DOM8-24cys (other)
VH: B4 VH
modifications: 30K PEG-MAL on the engineered C-terminal cysteine
notes: PEGylated monomer; also called 30K PEG DOM8-24cys

IC50 [4]: ~1 nM
IC50 (read off the curve) [2]: ~1 nM
B6: 40K PEG2-MAL PEGylated DOM8-24cys (other)
VH: B4 VH
modifications: 40K PEG2-MAL on the engineered C-terminal cysteine
notes: PEGylated monomer; also called 40K PEG DOM8-24cys

IC50 [1]: 800 nM
B7: DOM-2 (other)
VH: EVQLLESGGGLVQPGGSLRLSCAASGFTFSDYEMMWVRQAPGKGLEWVSTITSDGISTYYADSVKGRFTIFRDNSKNTLYLQMNSLRAEDTAVYYCAKSGRFFDYWGQGTLVTVSS
notes: VH dAb

IC50 [1]: 8 nM
B8: DOM-31 (other)
VH: EVQLLESGGGLVQPGGSLRLSCAASGFTFEEYQMAWVRQAPGKGLEWVSTISDDGSSTYYADSVKGRFTISRDNSKNTLYLQMNSLRAEDTAVYYCAKPDLYFDYWGQGTLVTVSS
notes: VH dAb

IC50 [1]: 0.417 nM
B9: DOM-24 (other)
VH: B8 VH with E30S, E31N, T50S, S52T, D53S, D54E, S56G, D100G, L101K, Y102N
notes: VH dAb; also called DOM8-24; monomeric DOM-24

IC50 [1]: 100 nM
B10: DOM-4 (other)
VH: B7 VH with S30D, D31N, M35T, T50S, I56T, F71S, S99P, G100N, R101P, F102P
notes: VH dAb

IC50 [1]: 8 nM
B11: DOM-20 (other)
VH: EVQLLESGGGLVQPGGSLRLSCAASGFTFSGYQMAWVRQAPGKGLEWVSGISSEGLTTYYADSVKGRFTISRDNSKNTLYLQMNSLRAEDTAVYYCAKLGRRFDYWGQGTLVTVSS
notes: VH dAb

IC50 [1]: ~100 nM
B12: DOM-27 (other)
VH: B8 VH with E30N, E31L, Q33E, A35T, T50S, S52T, D53S, S56V, L101S, Y102P
notes: VH dAb

IC50 [1]: 3 nM
B13: DOM-5 (other)
VH: B8 VH with E30D, E31G, Q33E, T50S, S52T, D53S, S56T, D100G, Y102R
notes: VH dAb

IC50 [1]: 8 nM
B14: DOM-30 (other)
VH: B8 VH with E30A, E31R, S56D, P99L, L101K, Y102L
notes: VH dAb

IC50 [1]: 1500 nM
B15: DOM-7 (other)
VH: B7 VH with S30N, D31L, M35T, T50S, I56V, F71S, S99A, R101V, F102I
notes: VH dAb
